{"source": "paper PMC6344896", "about": "“HuR biological function involves RRM3-mediated dimerization and RNA binding by all three RRMs”", "key": {"HuR RRM3 [1]": {"target": "T1, HuR RRM3 (human, UniProt Q15717 243-326)", "T1 sequence (Q15717 243-326)": "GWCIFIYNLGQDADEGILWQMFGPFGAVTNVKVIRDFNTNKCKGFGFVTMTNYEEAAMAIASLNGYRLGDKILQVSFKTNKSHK", "experiment": "NMR; 1:0.25 and 1:1.25; ITC: 50 mM sodium phosphate pH 7.0, 200 mM NaCl, 2 mM beta-mercaptoethanol, 298 K; NMR: 20 mM sodium phosphate pH 7.0, 200 mM NaCl, 5 mM DTT, 1 mM EDTA, 298 K", "settings": "protein: recombinant; tags: untagged (His6-GST cleaved with TEV)"}, "HuR RRM3 [2]": {"target": "T1, HuR RRM3", "experiment": "NMR; changes comparable with U6; ITC: 50 mM sodium phosphate pH 7.0, 200 mM NaCl, 2 mM beta-mercaptoethanol, 298 K; NMR: 20 mM sodium phosphate pH 7.0, 200 mM NaCl, 5 mM DTT, 1 mM EDTA, 298 K", "settings": "protein: recombinant; tags: untagged (His6-GST cleaved with TEV)"}, "HuR RRM3 [3]": {"target": "T1, HuR RRM3", "experiment": "ITC; 400 uM RNA into 20 uM RRM3; ITC: 50 mM sodium phosphate pH 7.0, 200 mM NaCl, 2 mM beta-mercaptoethanol, 298 K; NMR: 20 mM sodium phosphate pH 7.0, 200 mM NaCl, 5 mM DTT, 1 mM EDTA, 298 K", "settings": "protein: recombinant; tags: untagged (His6-GST cleaved with TEV)"}, "HuR RRM3 [4]": {"target": "T1, HuR RRM3", "experiment": "ITC; n=0.8; ITC: 50 mM sodium phosphate pH 7.0, 200 mM NaCl, 2 mM beta-mercaptoethanol, 298 K; NMR: 20 mM sodium phosphate pH 7.0, 200 mM NaCl, 5 mM DTT, 1 mM EDTA, 298 K", "settings": "protein: recombinant; tags: untagged (His6-GST cleaved with TEV)"}, "HuR RRM3 [5]": {"target": "T1, HuR RRM3", "experiment": "ITC; ITC: 50 mM sodium phosphate pH 7.0, 200 mM NaCl, 2 mM beta-mercaptoethanol, 298 K; NMR: 20 mM sodium phosphate pH 7.0, 200 mM NaCl, 5 mM DTT, 1 mM EDTA, 298 K", "settings": "protein: recombinant; tags: untagged (His6-GST cleaved with TEV)"}, "HuR RRM3 [6]": {"target": "T1, HuR RRM3", "experiment": "ITC; n=1.1; ITC: 50 mM sodium phosphate pH 7.0, 200 mM NaCl, 2 mM beta-mercaptoethanol, 298 K; NMR: 20 mM sodium phosphate pH 7.0, 200 mM NaCl, 5 mM DTT, 1 mM EDTA, 298 K", "settings": "protein: recombinant; tags: untagged (His6-GST cleaved with TEV)"}, "HuR F287A/F289A": {"target": "HuR F287A/F289A (human, UniProt Q15717 1-326, F287A;F289A)", "sequence (Q15717 whole entry F287A/F289A)": "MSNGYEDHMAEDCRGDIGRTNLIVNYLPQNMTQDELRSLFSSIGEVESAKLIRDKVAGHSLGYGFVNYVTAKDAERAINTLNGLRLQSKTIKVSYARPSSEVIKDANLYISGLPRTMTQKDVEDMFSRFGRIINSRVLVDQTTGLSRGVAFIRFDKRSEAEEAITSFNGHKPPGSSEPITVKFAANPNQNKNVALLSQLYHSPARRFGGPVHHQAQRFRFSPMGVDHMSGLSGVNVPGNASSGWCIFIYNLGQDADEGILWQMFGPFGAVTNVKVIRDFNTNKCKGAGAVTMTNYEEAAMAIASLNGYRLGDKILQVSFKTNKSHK", "experiment": "ITC; n=0.7; ITC: 50 mM sodium phosphate pH 7.0, 200 mM NaCl, 2 mM beta-mercaptoethanol, 298 K; NMR: 20 mM sodium phosphate pH 7.0, 200 mM NaCl, 5 mM DTT, 1 mM EDTA, 298 K", "settings": "protein: recombinant; tags: untagged (tag cleaved)"}, "HuR WT": {"target": "HuR WT (human, UniProt Q15717 1-326)", "sequence (Q15717 whole entry)": "as the sequence (Q15717 whole entry F287A/F289A) above, with A287F, A289F counted along it", "experiment": "ITC; n=0.7; ITC: 50 mM sodium phosphate pH 7.0, 200 mM NaCl, 2 mM beta-mercaptoethanol, 298 K; NMR: 20 mM sodium phosphate pH 7.0, 200 mM NaCl, 5 mM DTT, 1 mM EDTA, 298 K", "settings": "protein: recombinant; tags: untagged (His6-MBP cleaved)"}, "HuR W261E": {"target": "HuR W261E (human, UniProt Q15717 1-326, W261E)", "sequence (Q15717 whole entry W261E)": "as the sequence (Q15717 whole entry F287A/F289A) above, with W261E, A287F, A289F counted along it", "experiment": "ITC; n=0.9; ITC: 50 mM sodium phosphate pH 7.0, 200 mM NaCl, 2 mM beta-mercaptoethanol, 298 K; NMR: 20 mM sodium phosphate pH 7.0, 200 mM NaCl, 5 mM DTT, 1 mM EDTA, 298 K", "settings": "protein: recombinant; tags: untagged (tag cleaved)"}, "HuR GGS": {"target": "HuR GGS (human, UniProt Q15717 1-185+=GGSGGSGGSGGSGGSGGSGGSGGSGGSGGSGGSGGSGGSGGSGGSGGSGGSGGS+240-326, internal_change)", "sequence (Q15717 other isoform, or with tags, fused parts or gaps)": "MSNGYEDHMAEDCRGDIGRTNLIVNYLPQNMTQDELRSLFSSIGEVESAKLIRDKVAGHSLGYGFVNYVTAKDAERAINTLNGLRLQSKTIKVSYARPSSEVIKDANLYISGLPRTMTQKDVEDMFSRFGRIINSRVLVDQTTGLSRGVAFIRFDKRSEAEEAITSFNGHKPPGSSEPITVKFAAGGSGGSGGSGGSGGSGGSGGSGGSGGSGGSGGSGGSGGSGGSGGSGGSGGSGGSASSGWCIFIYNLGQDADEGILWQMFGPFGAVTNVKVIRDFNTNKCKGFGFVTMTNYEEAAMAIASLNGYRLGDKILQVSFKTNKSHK", "experiment": "ITC; n=0.9; ITC: 50 mM sodium phosphate pH 7.0, 200 mM NaCl, 2 mM beta-mercaptoethanol, 298 K; NMR: 20 mM sodium phosphate pH 7.0, 200 mM NaCl, 5 mM DTT, 1 mM EDTA, 298 K", "settings": "protein: recombinant; tags: pETM11 His6, cleaved"}, "HuR F279A": {"target": "HuR F279A (human, UniProt Q15717 1-326, F279A)", "sequence (Q15717 whole entry F279A)": "as the sequence (Q15717 whole entry F287A/F289A) above, with F279A, A287F, A289F counted along it", "experiment": "ITC; n=1.0; ITC: 50 mM sodium phosphate pH 7.0, 200 mM NaCl, 2 mM beta-mercaptoethanol, 298 K; NMR: 20 mM sodium phosphate pH 7.0, 200 mM NaCl, 5 mM DTT, 1 mM EDTA, 298 K", "settings": "protein: recombinant; tags: untagged (tag cleaved)"}, "HuR F247A/Y249A": {"target": "HuR F247A/Y249A (human, UniProt Q15717 1-326, F247A;Y249A)", "sequence (Q15717 whole entry F247A/Y249A)": "as the sequence (Q15717 whole entry F287A/F289A) above, with F247A, Y249A, A287F, A289F counted along it", "experiment": "ITC; n=0.8; ITC: 50 mM sodium phosphate pH 7.0, 200 mM NaCl, 2 mM beta-mercaptoethanol, 298 K; NMR: 20 mM sodium phosphate pH 7.0, 200 mM NaCl, 5 mM DTT, 1 mM EDTA, 298 K", "settings": "protein: recombinant; tags: untagged (tag cleaved)"}, "HuR RRM3 [7]": {"target": "T1, HuR RRM3", "experiment": "ITC; 400 uM RNA into 20 uM RRM3; n=0.6; ITC: 50 mM sodium phosphate pH 7.0, 200 mM NaCl, 2 mM beta-mercaptoethanol, 298 K; NMR: 20 mM sodium phosphate pH 7.0, 200 mM NaCl, 5 mM DTT, 1 mM EDTA, 298 K", "settings": "protein: recombinant; tags: untagged (His6-GST cleaved with TEV)"}, "HuR RRM3 F247A/Y249A": {"target": "HuR RRM3 F247A/Y249A (human, UniProt Q15717 243-326, F247A;Y249A)", "sequence (Q15717 243-326 F247A/Y249A)": "as the sequence (Q15717 243-326) above, with F5A, Y7A counted along it", "experiment": "ITC; ITC: 50 mM sodium phosphate pH 7.0, 200 mM NaCl, 2 mM beta-mercaptoethanol, 298 K; NMR: 20 mM sodium phosphate pH 7.0, 200 mM NaCl, 5 mM DTT, 1 mM EDTA, 298 K", "settings": "protein: recombinant; tags: untagged (His6-GST cleaved)"}, "HuR RRM3 F279A": {"target": "HuR RRM3 F279A (human, UniProt Q15717 243-326, F279A)", "sequence (Q15717 243-326 F279A)": "as the sequence (Q15717 243-326) above, with F37A counted along it", "experiment": "ITC; n=0.6; ITC: 50 mM sodium phosphate pH 7.0, 200 mM NaCl, 2 mM beta-mercaptoethanol, 298 K; NMR: 20 mM sodium phosphate pH 7.0, 200 mM NaCl, 5 mM DTT, 1 mM EDTA, 298 K", "settings": "protein: recombinant; tags: untagged (His6-GST cleaved)"}}}
{"binder": "GAGCAC (ssRNA)", "note": "[GC control]", "values": [{"measurement": "binding result", "setting": "HuR RRM3 [1]", "result": "no binding"}]}
{"binder": "UUUUUUUUU (ssRNA)", "note": "[U9]", "values": [{"measurement": "binding result", "setting": "HuR RRM3 [2]", "result": "binds"}]}
{"binder": "UUUUU (ssRNA)", "note": "[U5]", "values": [{"measurement": "Kd", "setting": "HuR RRM3 [3]", "result": 34, "unit": "µM"}]}
{"binder": "UUUAUU (ssRNA)", "note": "[AU6]", "values": [{"measurement": "Kd", "setting": "HuR RRM3 [4]", "result": "47 ± 3.6", "unit": "µM"}]}
{"binder": "UAUUUA (ssRNA)", "note": "[AU6tnf]", "values": [{"measurement": "Kd", "setting": "HuR RRM3 [5]", "result": "156 ± 32.8", "unit": "µM"}]}
{"binder": "UUUGUU (ssRNA)", "note": "[GU6]", "values": [{"measurement": "Kd", "setting": "HuR RRM3 [6]", "result": "100 ± 18.2", "unit": "µM"}]}
{"binder": "AUUUUUAUUUUAUUUUU (ssRNA)", "note": "[AU17]", "values": [{"measurement": "Kd", "setting": "HuR F287A/F289A", "result": "0.194 ± 0.0215", "unit": "µM"}, {"measurement": "Kd", "setting": "HuR WT", "result": "0.04 ± 0.0082", "unit": "µM"}, {"measurement": "Kd", "setting": "HuR W261E", "result": "0.041 ± 0.0048", "unit": "µM"}, {"measurement": "Kd", "setting": "HuR GGS", "result": "0.0336 ± 0.0027", "unit": "µM"}, {"measurement": "Kd", "setting": "HuR F279A", "result": "0.0288 ± 0.0044", "unit": "µM"}, {"measurement": "Kd", "setting": "HuR F247A/Y249A", "result": "0.351 ± 0.0199", "unit": "µM"}]}
{"binder": "UUUUUU (ssRNA)", "note": "[U6]", "values": [{"measurement": "Kd", "setting": "HuR RRM3 [7]", "result": "15.8 ± 1.5", "unit": "µM"}, {"measurement": "binding result", "setting": "HuR RRM3 F247A/Y249A", "result": "no binding"}, {"measurement": "Kd", "setting": "HuR RRM3 F279A", "result": "44.6 ± 3.5", "unit": "µM"}, {"measurement": "Kd", "setting": "HuR RRM3 [4]", "result": "19.3 ± 0.3", "unit": "µM"}]}
